Several values for one entry are separate records, joined by “and”; a condition that tells them apart may be missing. Equal entries are not always repeated. Where two headings read alike, the source gives them in different places.
B1: AB0045 (antibody, human IgG4 S228P, kappa, V domains shown)
VH: QVQLQESGPGLVKPSETLSLTCTVSGFSLLSYGVHWVRQPPGKGLEWLGVIWTGGTTNYNSALMSRFTISKDDSKNTVYLKMNSLKTEDTAIYYCARYYYGMDYWGQGTLVTVSS
VL: DIQMTQSPSSLSASVGDRVTITCKASQDVRNTVAWYQQKPGKAPKLLIYSSSYRNTGVPDRFSGSGSGTDFTLTISSLQAEDVAVYYCQQHYITPYTFGGGTKVEIKR
notes: Humanized AB0041, modified IgG4 (S241P); also called humanized variant anti-MMP9 antibody; VH3/Vk4
B2: AB0041 (antibody, mouse IgG2b, kappa, V domains shown)
VH: QVQLKESGPGLVAPSQSLSITCTVSGFSLLSYGVHWVRQPPGKGLEWLGVIWTGGTTNYNSALMSRLSISKDDSKSQVFLKMNSLQTDDTAIYYCARYYYGMDYWGQGTSVTVSS
VL: DIVMTQSHKFMSTSVGDRVSITCKASQDVRNTVAWYQQKTGQSPKLLIYSSSYRNTGVPDRFTGSGSGTDFTFTISSVQAEDLAVYFCQQHYITPYTFGGGTKLEIKR
notes: Mouse IgG2b/kappa from hybridoma; derived by aligning the variable region entries to the full chains; also called mouse monoclonal anti-MMP9 antibody (AB0041)
B3: AB0046 (antibody, mouse IgG1, kappa, V domains shown)
VH: QVQLQQPGSVLVRPGASVKLSCTASGYTFTSYWMNWVKQRPGQGLEWIGEIYPISGRTNYNEKFKVKATLTVDTSSSTAYMDLNSLTSEDSAVYYCARSRANWDDYWGQGTTLTVSS
VL: DIQMTQTTSSLSASLGDRVTISCSASQGISNYLNWYQQKPDGTFKLLIYYTSILHSGVPSRFSGSGSGTDYSLTISNLEPEDIATYYCQQYGWLPRTFGGGTKLEIKR
notes: Mouse IgG1/kappa raised in MMP9-knockout mice against mouse MMP9; also called surrogate mouse antibody AB0046

How the values were obtained:
Mouse MMP9 [1] = biological target: T1, Mouse MMP9 (mouse, UniProt P41245 20-730, limits assumed); experiment: ELISA
T1 construct: also called murine MMP9; wild-type mouse MMP9
T1 sequence (P41245 20-730 limits assumed): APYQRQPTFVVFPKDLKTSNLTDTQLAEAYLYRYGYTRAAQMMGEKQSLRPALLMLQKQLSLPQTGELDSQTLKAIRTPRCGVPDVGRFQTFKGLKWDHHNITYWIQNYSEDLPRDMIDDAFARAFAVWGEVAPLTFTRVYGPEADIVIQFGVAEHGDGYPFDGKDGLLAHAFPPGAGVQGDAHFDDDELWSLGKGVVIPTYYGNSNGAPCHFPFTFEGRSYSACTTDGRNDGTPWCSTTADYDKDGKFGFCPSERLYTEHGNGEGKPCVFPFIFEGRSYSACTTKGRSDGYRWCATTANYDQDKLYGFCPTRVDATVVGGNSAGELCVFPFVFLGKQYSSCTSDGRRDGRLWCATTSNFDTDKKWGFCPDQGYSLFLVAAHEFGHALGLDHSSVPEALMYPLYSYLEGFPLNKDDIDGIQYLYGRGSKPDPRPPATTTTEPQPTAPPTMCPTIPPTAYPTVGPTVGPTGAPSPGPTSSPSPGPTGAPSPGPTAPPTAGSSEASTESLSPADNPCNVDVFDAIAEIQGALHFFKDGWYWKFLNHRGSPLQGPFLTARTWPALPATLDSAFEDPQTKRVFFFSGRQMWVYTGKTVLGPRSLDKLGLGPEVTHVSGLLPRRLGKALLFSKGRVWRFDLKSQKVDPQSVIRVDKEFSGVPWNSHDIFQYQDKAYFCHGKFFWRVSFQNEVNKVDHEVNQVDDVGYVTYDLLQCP

Human MMP9 [2] = biological target: T2, Human MMP9 (human, UniProt P14780 20-707); experiment: ELISA
T2 construct: also called human matrix metalloproteinase-9; gelatinase-B
T2 sequence (P14780 20-707 Q279R/R574P): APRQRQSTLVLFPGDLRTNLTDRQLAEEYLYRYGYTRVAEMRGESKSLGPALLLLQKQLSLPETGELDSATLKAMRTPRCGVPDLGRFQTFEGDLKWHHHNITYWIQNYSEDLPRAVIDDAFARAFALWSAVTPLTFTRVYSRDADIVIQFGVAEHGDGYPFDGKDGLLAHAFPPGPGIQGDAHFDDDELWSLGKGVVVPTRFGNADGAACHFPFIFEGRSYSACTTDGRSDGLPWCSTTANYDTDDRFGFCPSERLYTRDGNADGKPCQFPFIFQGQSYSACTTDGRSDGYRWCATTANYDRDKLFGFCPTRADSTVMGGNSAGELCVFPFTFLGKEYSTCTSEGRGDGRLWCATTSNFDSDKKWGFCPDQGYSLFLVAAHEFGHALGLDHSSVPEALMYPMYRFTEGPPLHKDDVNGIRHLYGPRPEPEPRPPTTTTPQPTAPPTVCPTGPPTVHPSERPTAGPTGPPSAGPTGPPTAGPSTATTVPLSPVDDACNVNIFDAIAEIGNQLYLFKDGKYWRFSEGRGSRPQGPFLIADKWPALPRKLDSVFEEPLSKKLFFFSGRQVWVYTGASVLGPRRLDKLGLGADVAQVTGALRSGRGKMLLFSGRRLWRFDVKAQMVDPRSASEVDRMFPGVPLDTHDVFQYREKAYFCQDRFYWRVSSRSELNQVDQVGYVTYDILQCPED

Rat MMP9 [3] = biological target: T3, Rat MMP9 (rat, UniProt P50282 20-708, limits assumed); experiment: ELISA
T3 sequence (P50282 20-708 limits assumed): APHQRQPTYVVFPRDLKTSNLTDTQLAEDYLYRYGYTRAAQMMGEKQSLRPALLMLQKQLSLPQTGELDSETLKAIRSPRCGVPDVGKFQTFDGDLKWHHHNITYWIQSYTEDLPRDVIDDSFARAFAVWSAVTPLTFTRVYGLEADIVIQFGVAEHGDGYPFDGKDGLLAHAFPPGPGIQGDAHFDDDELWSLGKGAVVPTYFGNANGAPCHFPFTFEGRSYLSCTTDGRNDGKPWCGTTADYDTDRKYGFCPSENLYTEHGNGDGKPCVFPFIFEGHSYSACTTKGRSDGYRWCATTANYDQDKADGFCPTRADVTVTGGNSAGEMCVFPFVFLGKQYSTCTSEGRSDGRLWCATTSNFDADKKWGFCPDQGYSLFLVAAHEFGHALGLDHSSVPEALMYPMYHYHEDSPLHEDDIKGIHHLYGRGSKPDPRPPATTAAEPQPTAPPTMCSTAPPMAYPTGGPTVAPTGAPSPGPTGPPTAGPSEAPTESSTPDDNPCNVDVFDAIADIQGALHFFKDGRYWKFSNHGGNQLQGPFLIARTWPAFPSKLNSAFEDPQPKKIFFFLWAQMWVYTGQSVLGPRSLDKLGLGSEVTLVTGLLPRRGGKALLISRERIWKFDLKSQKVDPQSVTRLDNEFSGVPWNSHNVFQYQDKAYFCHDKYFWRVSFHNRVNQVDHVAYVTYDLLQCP

Cynomolgus monkey MMP9 [4] = biological target: T4, Cynomolgus monkey MMP9 (cynomolgus monkey, UniProt A0A2K5UU71 20-706); experiment: ELISA
T4 construct: also called cynomolgus MMP9
T4 sequence (A0A2K5UU71 entry or part of it): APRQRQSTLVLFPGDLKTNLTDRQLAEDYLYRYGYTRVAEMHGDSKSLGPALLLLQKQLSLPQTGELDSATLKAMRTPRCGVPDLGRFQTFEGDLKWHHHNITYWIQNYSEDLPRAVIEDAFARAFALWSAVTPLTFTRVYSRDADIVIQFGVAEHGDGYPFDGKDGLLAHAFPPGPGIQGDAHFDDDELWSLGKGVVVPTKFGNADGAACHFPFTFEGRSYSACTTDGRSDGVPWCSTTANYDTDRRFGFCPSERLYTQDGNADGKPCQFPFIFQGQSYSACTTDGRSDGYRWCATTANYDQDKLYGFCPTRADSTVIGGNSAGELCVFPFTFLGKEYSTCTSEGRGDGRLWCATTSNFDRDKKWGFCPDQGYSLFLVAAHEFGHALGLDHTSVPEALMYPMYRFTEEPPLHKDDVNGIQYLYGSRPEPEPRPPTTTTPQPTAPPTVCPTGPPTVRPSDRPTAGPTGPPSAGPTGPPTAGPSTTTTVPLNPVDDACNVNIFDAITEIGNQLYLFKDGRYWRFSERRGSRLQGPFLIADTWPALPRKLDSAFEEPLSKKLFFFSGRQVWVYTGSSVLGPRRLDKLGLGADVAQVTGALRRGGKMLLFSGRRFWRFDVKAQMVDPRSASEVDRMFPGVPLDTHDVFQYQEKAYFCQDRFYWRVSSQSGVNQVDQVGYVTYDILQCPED

Human MMP9 [5] = biological target: T2, Human MMP9; experiment: ELISA; remark: listed apart in the source
Rat MMP9 [6] = biological target: T3, Rat MMP9; experiment: ELISA; remark: listed apart in the source
Cynomolgus monkey MMP9 [7] = biological target: T4, Cynomolgus monkey MMP9; experiment: ELISA; remark: listed apart in the source
Human MMP9 [8] = biological target: T2, Human MMP9; experiment: cell-based or functional assay
Mouse MMP9 [9] = biological target: T1, Mouse MMP9; experiment: cell-based or functional assay
Human MMP9 [10] = biological target: T2, Human MMP9; experiment: cell-based or functional assay; remark: listed apart in the source
Rat MMP9 [11] = biological target: T3, Rat MMP9; experiment: cell-based or functional assay
Cynomolgus monkey MMP9 [12] = biological target: T4, Cynomolgus monkey MMP9; experiment: cell-based or functional assay
Human MMP9 [13] = biological target: T2, Human MMP9; experiment: direct binding and SPR assays
Human MMP9 [14] = biological target: T2, Human MMP9; experiment: ELISA; remark: listed apart in the source
Rat MMP9 [15] = biological target: T3, Rat MMP9; experiment: ELISA; remark: listed apart in the source
Cynomolgus monkey MMP9 [16] = biological target: T4, Cynomolgus monkey MMP9; experiment: ELISA; remark: listed apart in the source
Human MMP9 [17] = biological target: T2, Human MMP9; experiment: SPR
Mouse MMP9 [18] = biological target: T1, Mouse MMP9; experiment: ELISA; remark: listed apart in the source

Binder	Kd (Mouse MMP9 [1])	Kd (Human MMP9 [2])	Kd (Rat MMP9 [3])	Kd (Cynomolgus monkey MMP9 [4])	Kd (Human MMP9 [5])	Kd (Rat MMP9 [6])	Kd (Cynomolgus monkey MMP9 [7])	IC50, MMP9 enzymatic assay under steady-state conditions (Human MMP9 [8])	Activity Assay, Mouse MMP9 IC50 (Mouse MMP9 [9])	Activity Assay, Human MMP9 IC50 (Human MMP9 [10])	Activity Assay, Rat MMP9 IC50 (Rat MMP9 [11])	Activity Assay, Cynomolgus monkey MMP9 IC50 (Cynomolgus monkey MMP9 [12])	Kd (Human MMP9 [13])	Kd (Human MMP9 [14])	Kd (Rat MMP9 [15])	Kd (Cynomolgus monkey MMP9 [16])	Kd (Human MMP9 [17])	Kd (Mouse MMP9 [18])
B1	> 100000 pM	168 pM	311 pM	82 pM	168 pM	311 pM	82 pM	0.148 nM to 0.161 nM (2×) and 0.158 nM	> 100000 pM	691 pM	8230 pM	194 pM	~1 pM	< 400 pM	< 400 pM	< 400 pM	8.8 pM	
B2	> 100000 pM	133 pM	332 pM	145 pM	133 pM	332 pM	145 pM		> 100000 pM	569 pM	2780 pM	189 pM		< 400 pM	< 400 pM	< 400 pM	0.4 pM	> 100000 pM
B3	218 pM	> 100000 pM							352 pM	> 100000 pM	> 100000 pM	> 100000 pM						

Reference: patent US20170183421A1 (Gilead, published 2017)
